In the data set the test system is T-bet protein (modified forms used as substrates in in vitro kinase assays).

ITK: the “phosphorylation in in vitro kinase assay” value is “Both the ITK and Rlk/txk kinases have been found to phosphorylate T-bet in vitro”.

On to Rlk/Txk, for which the “phosphorylation in in vitro kinase assay” value was “Both the ITK and Rlk/txk kinases have been found to phosphorylate T-bet in vitro”.

The record behind these values is US20030186377.
